What was measured:
Test in all cases: Crosslinking/co-immunoprecipitation/mass spectrometry (TMT quantitative proteomics) to identify irisin receptors
Type in all cases: binding
[1] = molecular target: T1, MLO-Y4 cell surface proteins (Mus musculus, UniProt P55292); conditions: co-precipitated protein Dsc2 (DSC2_MOUSE)
T1 construct: endogenous in cells; host or cells: MLO-Y4
T1 sequence (P55292 136-902): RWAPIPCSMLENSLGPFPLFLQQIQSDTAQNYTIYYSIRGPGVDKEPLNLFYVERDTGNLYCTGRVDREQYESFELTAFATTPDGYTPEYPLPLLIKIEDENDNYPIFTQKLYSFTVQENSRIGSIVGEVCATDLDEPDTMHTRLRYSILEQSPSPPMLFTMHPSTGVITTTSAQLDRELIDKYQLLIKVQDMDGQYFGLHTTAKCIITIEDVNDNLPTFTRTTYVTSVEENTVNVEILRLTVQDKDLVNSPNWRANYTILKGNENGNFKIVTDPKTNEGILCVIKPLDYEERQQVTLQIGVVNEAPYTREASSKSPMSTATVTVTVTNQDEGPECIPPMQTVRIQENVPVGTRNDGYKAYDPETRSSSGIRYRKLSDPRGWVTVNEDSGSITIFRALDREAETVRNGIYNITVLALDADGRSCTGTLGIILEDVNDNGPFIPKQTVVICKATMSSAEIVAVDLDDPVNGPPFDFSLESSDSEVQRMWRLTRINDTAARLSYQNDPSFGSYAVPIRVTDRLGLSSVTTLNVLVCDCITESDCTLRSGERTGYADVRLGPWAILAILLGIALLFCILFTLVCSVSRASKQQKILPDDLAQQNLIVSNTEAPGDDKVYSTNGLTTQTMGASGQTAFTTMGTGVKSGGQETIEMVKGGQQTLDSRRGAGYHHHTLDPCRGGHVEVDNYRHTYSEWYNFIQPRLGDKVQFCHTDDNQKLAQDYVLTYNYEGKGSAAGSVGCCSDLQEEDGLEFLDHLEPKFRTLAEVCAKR
Method in brief: (§1)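 Relative protein abundance came from 6-plex TMT MS3 quantitation on an Orbitrap Fusion Lumos, after in-gel trypsin digestion of Coomassie-stained SDS-PAGE lanes. Input was a Ni-NTA pulldown (250 mM imidazole elution) of lysates from murine MLO-Y4 cells. These cells were treated on ice with His-tagged irisin or adipsin (10 nM, 20 min) in serum-free medium, then crosslinked with 1.5 mM DTSSP for 30 min.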

[2] = molecular target: T2, MLO-Y4 cell surface proteins (Mus musculus, UniProt Q62028); conditions: co-precipitated protein Pla2r1 (PLA2R_MOUSE)
T2 construct: endogenous in cells; host or cells: MLO-Y4
Method in brief: as §1

[3] = molecular target: T3, MLO-Y4 cell surface proteins (Mus musculus, UniProt Q8VCI5); conditions: co-precipitated protein Pex19 (PEX19_MOUSE)
T3 construct: endogenous in cells; host or cells: MLO-Y4
T3 sequence (Q8VCI5 1-299): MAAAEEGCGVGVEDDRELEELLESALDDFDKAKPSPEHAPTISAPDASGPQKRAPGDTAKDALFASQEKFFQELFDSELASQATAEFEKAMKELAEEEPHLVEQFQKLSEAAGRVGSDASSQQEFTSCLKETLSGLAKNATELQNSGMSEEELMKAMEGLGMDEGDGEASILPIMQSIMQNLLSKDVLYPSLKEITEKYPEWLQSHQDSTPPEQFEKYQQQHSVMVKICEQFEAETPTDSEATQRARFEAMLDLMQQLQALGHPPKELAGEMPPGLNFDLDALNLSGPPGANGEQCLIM
Method in brief: as §1

T2 sequence (Q62028 27-1487): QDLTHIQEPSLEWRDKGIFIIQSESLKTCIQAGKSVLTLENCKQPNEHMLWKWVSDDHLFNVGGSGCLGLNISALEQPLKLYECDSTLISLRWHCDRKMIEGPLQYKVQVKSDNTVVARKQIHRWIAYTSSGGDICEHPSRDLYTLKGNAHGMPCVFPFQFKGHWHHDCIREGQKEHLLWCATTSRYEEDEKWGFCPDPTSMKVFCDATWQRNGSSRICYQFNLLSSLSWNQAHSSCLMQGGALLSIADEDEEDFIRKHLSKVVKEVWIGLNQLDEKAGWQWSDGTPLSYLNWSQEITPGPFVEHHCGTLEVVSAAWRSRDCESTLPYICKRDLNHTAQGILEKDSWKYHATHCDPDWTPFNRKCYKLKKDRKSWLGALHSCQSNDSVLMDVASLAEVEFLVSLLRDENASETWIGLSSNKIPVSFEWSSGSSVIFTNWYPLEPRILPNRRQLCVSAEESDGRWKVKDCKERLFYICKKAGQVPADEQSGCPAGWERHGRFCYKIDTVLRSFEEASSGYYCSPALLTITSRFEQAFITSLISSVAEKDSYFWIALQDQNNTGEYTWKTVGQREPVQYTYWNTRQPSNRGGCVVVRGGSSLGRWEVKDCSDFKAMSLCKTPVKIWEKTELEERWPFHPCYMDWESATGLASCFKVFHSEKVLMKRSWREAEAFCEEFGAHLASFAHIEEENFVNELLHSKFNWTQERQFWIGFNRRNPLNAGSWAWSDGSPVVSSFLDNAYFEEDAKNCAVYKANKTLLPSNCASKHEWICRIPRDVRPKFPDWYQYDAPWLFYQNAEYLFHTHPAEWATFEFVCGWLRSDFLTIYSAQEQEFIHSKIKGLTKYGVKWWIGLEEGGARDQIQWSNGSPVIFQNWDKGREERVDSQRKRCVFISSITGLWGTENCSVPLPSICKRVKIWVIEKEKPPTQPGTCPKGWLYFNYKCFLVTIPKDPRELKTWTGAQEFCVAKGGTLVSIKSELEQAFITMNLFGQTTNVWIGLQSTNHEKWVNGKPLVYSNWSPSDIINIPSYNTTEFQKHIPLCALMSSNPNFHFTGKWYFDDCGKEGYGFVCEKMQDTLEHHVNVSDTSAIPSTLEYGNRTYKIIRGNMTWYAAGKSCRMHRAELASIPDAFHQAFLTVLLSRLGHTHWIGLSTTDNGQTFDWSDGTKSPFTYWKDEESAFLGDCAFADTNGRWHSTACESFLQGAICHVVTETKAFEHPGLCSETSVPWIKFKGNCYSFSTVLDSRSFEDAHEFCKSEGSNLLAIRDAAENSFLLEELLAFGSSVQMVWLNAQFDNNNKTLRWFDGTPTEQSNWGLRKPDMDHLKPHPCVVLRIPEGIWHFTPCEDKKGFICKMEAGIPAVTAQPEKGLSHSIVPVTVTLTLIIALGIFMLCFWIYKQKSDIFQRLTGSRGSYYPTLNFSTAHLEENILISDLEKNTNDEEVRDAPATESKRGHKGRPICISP

B1: irisin: secreted cleaved form of FNDC5; recombinant human/mouse irisin with C-terminal his tag produced in HEK293 cells (protein)
chain: DSPSAPVNVTVRHLKANSAVVSWDVLEDEVVIGFAISQQKKDVRMLRFIQEVNTTTRSCALWDLEEDTEYIVHVQAISIQGQSPASEPVLFKTPREAEKMASKNKDEVTMKE
modifications: left off: small tags and cut ends
notes: secreted cleaved form of FNDC5; recombinant human/mouse irisin with C-terminal his tag produced in HEK293 cells
B1 was tested, and the TMT signal-to-noise ratio [1] was 3.51, the “irisin/adipsin TMT signal-to-noise ratio” value [1] was 0.037 and the TMT signal-to-noise ratio [2] was 142.778. The “irisin/adipsin TMT signal-to-noise ratio” value [2] was 0.275, the TMT signal-to-noise ratio [3] was 23.3696 and the “irisin/adipsin TMT signal-to-noise ratio” value [3] was 0.386.

Reference: patent US20210063414A1, “METHODS FOR PREVENTING AND/OR TREATING BONE LOSS CONDITIONS BY MODULATING IRISIN” (Dana-Farber Cancer Institute, Inc., priority 2018, published 2021)
